Data reported in paper PMC11128299 (Biophysics and Physicobiology, 2023).
Where a chain is given by its changes, count along the chain named. Names may count otherwise. Where two headings read alike, the source gives them in different places.

B1: KaiC-CV (KaiC with S431C and T432V substitutions) (enzyme)
chain: MTSAEMTSPNNNSEHQAIAKMRTMIEGFDDISHGGLPIGRSTLVSGTSGTGKTLFSIQFLYNGIIEFDEPGVFVTFEETPQDIIKNARSFGWDLAKLVDEGKLFILDASPDPEGQEVVGGFDLSALIERINYAIQKYRARRVSIDSVTSVFQQYDASSVVRRELFRLVARLKQIGATTVMTTERIEEYGPIARYGVEEFVSDNVVILRNVLEGERRRRTLEILKLRGTSHMKGEYPFTITDHGINIFPLGAMRLTQRSSNVRVSSGVVRLDEMCGGGFFKDSIILATGATGTGKTLLVSRFVENACANKERAILFAYEESRAQLLRNAYSWGMDFEEMERQNLLKIVCAYPESAGLEDHLQIIKSEINDFKPARIAIDSLSALARGVSNNAFRQFVIGVTGYAKQEEITGLFTNTSDQFMGAHSITDSHICVITDTIILLQYVEIRGEMSRAINVFKMRGSWHDKAIREFMISDKGPDIKDSFRNFERIISGSPTRITVDEKSELSRIVRGVQEKGPES
B2: KaiC-TV (KaiC with threonine at position 431 and valine at position 432) (enzyme)
chain: B1 chain with C431T

Legend:
[1] = target: the molecule itself; assay: crystal structure
[2] = target: the molecule itself; assay: crystal structure; remark: listed apart in the source

Protein | stoichiometry N [1] | stoichiometry N [2]
B1 | 6 | 
B2 |  | 6
